Experimental data from patent US20070020327A1.

Columns and labels:
[1] = target: HLA-A*0201 (human); experiment: competitive inhibition of 125I-labelled standard peptide binding to purified HLA, gel filtration; ratio = IC50 standard / IC50 test peptide
[2] = target: HLA-A*6802 (human); experiment: as above; conditions: remark: other sources report otherwise
[3] = target: HLA-A*0301 (human); experiment: competition with 125I-labelled standard peptide for purified HLA, gel filtration; conditions: scale: ratio
[4] = target: HLA-A*3301 (human); experiment: as above; conditions: scale: ratio
[5] = target: HLA-A*6801 (human); experiment: as above; conditions: scale: ratio
[6] = target: HLA-A*1101 (human); experiment: as above; conditions: scale: ratio
[7] = target: HLA-A*0201 (human); experiment: competition with 125I-labelled standard peptide for purified HLA, gel filtration; ratio = IC50 standard / IC50 test peptide
[8] = target: HLA-A*0206 (human); experiment: as above
[9] = target: HLA-A*6802 (human); experiment: as above
[10] = target: HLA-A*0203 (human); experiment: as above
[11] = target: HLA-A*0202 (human); experiment: as above
[12] = target: HLA-A*0206 (human); experiment: competitive inhibition of 125I-labelled standard peptide binding to purified HLA, gel filtration; ratio = IC50 standard / IC50 test peptide
[13] = target: HLA-A*0203 (human); experiment: as above
[14] = target: HLA-A*0202 (human); experiment: as above
[15] = target: HLA-B*0702 (human); experiment: competition with 125I-labeled standard peptide (1075.23 [..]) for purified HLA-B*0702, gel filtration
[16] = target: HLA-A*0206 (purified HLA class I molecule) (human); experiment: competition with 125I-labelled standard peptide for purified HLA, gel filtration
[17] = target: HLA-A*0202 (purified HLA class I molecule) (human); experiment: as above
[18] = target: HLA-A*0203 (purified HLA class I molecule) (human); experiment: as above
[19] = target: HLA-A*0201 (purified HLA class I molecule) (human); experiment: as above
[20] = target: HLA-A*0202 (human); experiment: competition with 125I-labelled standard peptide 941.01 ([..]) for purified HLA-A*0202, gel filtration
[21] = target: HLA-A*0206 (human); experiment: competition with 125I-labelled standard peptide 941.01 ([..]) for purified HLA-A*0206, gel filtration
[22] = target: HLA-A*0201 (human); experiment: competition with 125I-labelled standard peptide 941.01 ([..]) for purified HLA-A*0201, gel filtration
[23] = target: HLA-A*6802 (human); experiment: competition with 125I-labelled standard peptide 1072.34 ([..]) for purified HLA-A*6802, gel filtration
[24] = target: HLA-A*0203 (human); experiment: competition with 125I-labelled standard peptide 941.01 ([..]) for purified HLA-A*0203, gel filtration
[25] = target: HLA-A*0201 (human); experiment: competition for purified HLA with 125I-labelled standard peptide 941.01 [..] as competitor, gel filtration; conditions: scale: ratio
[26] = target: HLA-A*0203 (human); experiment: as above; conditions: scale: ratio
[27] = target: HLA-A*0202 (human); experiment: as above; conditions: scale: ratio
[28] = target: HLA-A*6802 (human); experiment: competition for purified HLA with 125I-labelled standard peptide 1072.34 [..] as competitor, gel filtration; conditions: scale: ratio
[29] = target: HLA-A*0101 molecule, purified from cell lysates (human); experiment: competition with 125I-labelled standard peptide for purified HLA-A*0101, gel filtration
[30] = target: HLA-A*0101 (human); experiment: inhibition of 125I-labeled standard peptide 944.02 binding to purified HLA-A*0101, gel filtration
[31] = target: HLA-A*0301 (human); experiment: competition with 125I-labelled probe peptide for purified HLA-A*0301, gel filtration
[32] = target: HLA-A*0206 (human); experiment: competitive inhibition of 125I-labelled standard peptide binding to purified HLA, gel filtration
[33] = target: HLA-A*6802 (human); experiment: as above
[34] = target: HLA-A*0202 (human); experiment: as above
[35] = target: HLA-A*0201 (human); experiment: inhibition of 125I-standard peptide binding to purified HLA, gel filtration
[36] = target: HLA-A*0206 (human); experiment: as above
[37] = target: HLA-A*6802 (human); experiment: as above
[38] = target: HLA-A*0301 (human); experiment: competition with 125I-labelled standard peptide for purified HLA-A*0301, gel filtration; relative binding
[39] = target: HLA-A*1101 (human); experiment: competition with 125I-labelled standard peptide 940.06 ([..], IC50 […] nM) for purified HLA-A*1101; gel filtration
[40] = target: HLA-A*0201 (human); experiment: competition binding to purified HLA, 125I-labelled standard peptide, gel filtration; ratio = IC50 standard / IC50 test peptide; conditions: remark: other sources report otherwise
[41] = target: HLA-A*0206 (human); experiment: as above; conditions: remark: other sources report otherwise
[42] = target: HLA-A*0203 (human); experiment: as above; conditions: remark: other sources report otherwise
[43] = target: HLA-A*0202 (human); experiment: as above; conditions: remark: other sources report otherwise

B1: … (Kallikrein, position 138) (peptide)
peptide: VLGLPTQEPA
modifications: not checked
binding affinity ratio ([1]; remark: other sources report otherwise): 0.0008
binding affinity ratio [2]: -0.0001

B2: … (PSA, position 125) (peptide)
peptide: PAELTDAVK
modifications: not checked
binding affinity ratio [3]: 0.0002
binding affinity ratio [4]: 0.0006
binding affinity ratio [5]: 0.0001
binding affinity ratio [6]: 0.0002

B3: PSA peptide QVHPQKVT, position 182, 8 amino acids (peptide)
peptide: QVHPQKVT
modifications: not checked
binding affinity ratio (ratio to standard peptide) [7]: -0.0001
binding affinity ratio (ratio to standard peptide) [8]: -0.0001
binding affinity ratio (ratio to standard peptide) [9]: -0.0001
binding affinity ratio (ratio to standard peptide) [10]: 0.0001
binding affinity ratio (ratio to standard peptide) [11]: -0.0001

B4: … (Kallikrein, position 40) (peptide)
peptide: VAVYSHGWA
modifications: not checked
binding affinity ratio [1]: -0.0001
binding affinity ratio [12]: 0.0002
binding affinity ratio [13]: 0.0002
binding affinity ratio [14]: -0.0001

B5: PSM peptide … (position 119, 9 amino acids) (peptide)
peptide: YPNKTHPNY
modifications: not checked
binding affinity ratio (IC50 of standard peptide / IC50 of test peptide) [15]: 0.0001

B6: PSA peptide MLCAGRWT (position 192, 8 amino acids) (peptide)
peptide: MLCAGRWT
modifications: not checked
binding affinity ratio (IC50 of standard peptide / IC50 of test peptide) [16]: -0.0001
binding affinity ratio (IC50 of standard peptide / IC50 of test peptide) [17]: 0.0012
binding affinity ratio (IC50 of standard peptide / IC50 of test peptide) [18]: 0.0033
binding affinity ratio (IC50 of standard peptide / IC50 of test peptide) [19]: 0.0006

B7: Kallikrein (hK2) peptide … (position 150, 11 amino acids); the same letters in PSA at position 146 (peptide)
peptide: TTCYASGWGSI
modifications: not checked
binding affinity ratio (IC50 of standard peptide / IC50 of test peptide) [20]: 0.0009
binding affinity ratio (IC50 of standard peptide / IC50 of test peptide) [21]: 0.0005
binding affinity ratio (IC50 of standard peptide / IC50 of test peptide) [22]: -0.0001

B8: PSA peptide VASRGRAV (position 38, 8 amino acids) (peptide)
peptide: VASRGRAV
modifications: not checked
binding affinity ratio (IC50 of standard peptide / IC50 of test peptide) [20]: -0.0001
binding affinity ratio (IC50 of standard peptide / IC50 of test peptide) [21]: -0.0001
binding affinity ratio (IC50 of standard peptide / IC50 of test peptide) [23]: -0.0001
binding affinity ratio (IC50 of standard peptide / IC50 of test peptide) [22]: -0.0001
binding affinity ratio (IC50 of standard peptide / IC50 of test peptide) [24]: -0.0001

B9: … (Kallikrein position 52 / PSA position 48, 11-mer) (peptide)
peptide: GVLVHPQWVLT
modifications: not checked
binding affinity ratio [25]: 0.0002
binding affinity ratio [26]: 0.0005
binding affinity ratio [27]: 0.0005
binding affinity ratio [28]: -0.0001

B10: PSM peptide … (position 168, 9 amino acids) (peptide)
peptide: GMPEGDLVY
modifications: not checked
binding affinity ratio (IC50 of the standard peptide / IC50 of the test peptide) [29]: 0.0001

B11: PSA 236 peptide … (peptide)
peptide: PSLYTKVVHY
modifications: not checked
binding affinity ratio (IC50 of the standard peptide / IC50 of the test peptide) [30]: 0.001

B12: PSM 273 peptide … (peptide)
peptide: PANEYAYRR
modifications: not checked
binding affinity ratio (IC50 of the standard peptide / IC50 of the test peptide) [31]: 0.0001

B13: KITDVVKV (Kallikrein, position 131) (peptide)
peptide: KITDVVKV
modifications: not checked
binding affinity ratio (ratio to standard peptide) [32]: 0.0002
binding affinity ratio (ratio to standard peptide) [33]: -0.0001
binding affinity ratio (ratio to standard peptide) [34]: 0.0002

B14: Kallikrein 123 … (peptide)
peptide: LLRLSEPAKIT
modifications: not checked
binding affinity ratio (IC50 standard peptide / IC50 test peptide) (ratio to standard peptide) [35]: 0.0002
binding affinity ratio (IC50 standard peptide / IC50 test peptide) (ratio to standard peptide) [36]: -0.0001
binding affinity ratio (IC50 standard peptide / IC50 test peptide) (ratio to standard peptide) [37]: -0.0001

B15: PSM peptide … (PSM position 31, 9 amino acids) (peptide)
peptide: GFFLLGFLF
modifications: not checked
binding affinity ratio (IC50 of the standard peptide / IC50 of the test peptide) [38]: 0.0005

B16: PSM.273 peptide … (peptide)
peptide: PANEYAYRR
modifications: not checked
binding affinity ratio (IC50 of standard peptide / IC50 of test peptide) [39]: 0.0002

B17: … (PSA, position 136, 11 amino acids) (peptide)
peptide: DLPTQEPALGT
modifications: not checked
binding affinity ratio [40]: 0.0041
binding affinity ratio [41]: 0.0001
binding affinity ratio [42]: 0.01
binding affinity ratio [43]: 0.018
